Tests used:
[1] = test system: MS2 coat protein; test: apparent KD of MS2 coat protein; designed switch direction (-1 OFF switch, 1 ON switch): 1; higher = weaker reporter binding
In short: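 Designed RNA switches were transcribed on Illumina chips by stalled E. coli RNA polymerase and titrated with SNAP-549-labelled MS2 coat protein from 0.7 or 1.5 nM, doubling to 3 µM. Step length ran from 0.8–1.5 h at the lowest concentration to 10–20 min at the highest. The apparent KD is the median over clusters for each design, from curve-fitted normalised cluster fluorescence.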

[2] = test system: MS2 coat protein; test: apparent KD of MS2 coat protein; higher = weaker reporter binding; conditions: Eterna round: R107
In short: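 Designed RNA switches, transcribed on-chip from Illumina sequencing clusters, were titrated with SNAP-549-labelled MS2 coat protein from 0.7 or 1.5 nM to 3 µM in twofold steps. The solution was 100 mM Tris-HCl pH 7.5, 80 mM KCl, 4 mM MgCl2, with constant ligand or without it. Apparent KD is the median over each design's normalised cluster binding-curve fits.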

[3] = Eterna round: R95, input ligand: FMN 200 uM
[4] = Eterna round: R95, input ligand: microRNA oligo, concentration not stated
[5] = Eterna round: R95, input ligand: none
[6] = input ligand: microRNA oligo, concentration not stated
[7] = input ligand: theophylline 20 uM
[8] = input ligand: tryptophan 2.4 mM
[9] = input ligand: theophylline 2 mM

| Sequence | apparent KD of MS2 coat protein ([2]; input ligand: arginine 13.2 mM) | apparent KD of MS2 coat protein [2, 7] | apparent KD of MS2 coat protein [2, 8] | apparent KD of MS2 coat protein ([2]; input ligand: none) | apparent KD of MS2 coat protein [2, 9] | other results |
| --- | --- | --- | --- | --- | --- | --- |
| UAGAAACAUGAGGAUCACCCAUGUGUCAAAGACAUAGGAUAUCACAACUGGCGCCAGUCGUGAGAAGGGUGGUAAA [Usonesat] (puzzle: Same State 1) | – | – | – | – | – | apparent KD of MS2 coat protein [1, 3]: 229 nM; apparent KD of MS2 coat protein [1, 4]: 53.6 nM; apparent KD of MS2 coat protein [1, 5]: 84.7 nM |
| AUUUUUAAUGCAGGAUAUGAUUAACAUGAGGAUCACCCAUGUGGUGUUGUGAGUAAGGAGAGUGAUCAGAAGGGCAUUUUUUCA [SS-NG2-LRO01] (Eterna round: R96, puzzle: Same State NG 2) | – | – | – | – | – | apparent KD of MS2 coat protein ([1]; input ligand: FMN 200 uM): 838 nM; apparent KD of MS2 coat protein [1, 6]: 495 nM; apparent KD of MS2 coat protein ([1]; input ligand: none): 533 nM |
| AAAAGACAUGAGGAUCACCCAUGUAAAAACAUAGGAGGAUAUGUCAUGAAAAAAGACUUGACAGAAGGCCUUUGUC [SS1 - 49] (Eterna round: R96, puzzle: Same State 1) | – | – | – | – | – | apparent KD of MS2 coat protein [1, 6]: 156 nM |
| AAUUAUUGACAUGAGGAUCACCCAUGUAAAGCAUGGAUUAACAAGCUACAAGCUUUUUGCUCGUCUUAUCCUAUAGG [Improved Bojan's design] (puzzle: Sensor for hsa-mir-208a version 2) | – | – | – | – | – | apparent KD of MS2 coat protein [1, 3]: 55.9 nM; apparent KD of MS2 coat protein [1, 4]: 34.6 nM; apparent KD of MS2 coat protein [1, 5]: 58.1 nM |
| CAUCAUGGGCUUGGACAAAUUGUGCUUGAUACCAGAAAUCACCGGUUCCCUUGGCAGCAACCCACAUGAGGAUCACCCAUGUGGA [theeternabot_exclusion_MS2_Theo_A_4] | 18.6 nM | 20.1 nM | 23 nM | – | – | – |
| GCUAGCCGAAAGGCUAGCAGCGCUACAGAAGGAGCGUGCGAAAGCACAGGUAGGUCGCUGAACAUGAGCAUCAGCCAUGUUGCGC [SSAA - Alter Amptam #2 V2+NP] | 14.8 nM | 18.5 nM | 11.7 nM | 12.2 nM | 18.6 nM | – |
| UUACAUGAGGAUCACCCAUGUCAUAAUGAUACCAGAUAGUUAAUGAUCCCUUGGCAGCAUAAUACCUAGACAUUUAAGUCAUAGG [Aa] | 59.5 nM | 80 nM | 56.2 nM | – | – | – |
| AAUGUAUGGCACAUGAGGAUCACCCAUGUGCGAGGACCGGUACGGCCGCCACUCGGUCCUGGAUUCUUAUUACUAUACAUUAAUG [XTryp A #16] | 14 nM | 18.9 nM | – | – | 15.4 nM | – |
| GUGGAGACCUCGGCCGCCACUCUCCAUGAGGAUCUCCCAUGUAACAUGAGGAUCACCCAUGUGCUGAGGACCGGGAGGUCCUGAA [Same State Tryptophan B GF 19] | 15.7 nM | 13.4 nM | 9.55 nM | 9.47 nM | 11 nM | – |
| UUUUUCGCGGGCGAUACCAGCUUGAUCGUACUGGCCUGGUACAUGAGGAUCACCCAUGUAAGCCCUUGGCAGCGCGCGGGAGAAG [Exclusion - Theophylline B Attempt #1 (HarryS)] | 11.5 nM | 14.6 nM | 15.2 nM | 12.7 nM | 20.2 nM | – |
| GGUUGGUGUGGAGACAUAUUGAUCACUGAAGGAGCGGGAAUAAACCCAGGUAGGUCGCAGAGAUCCACAUGAGGAUCACCCAUGU [!0.Q] | 80.8 nM | 68.9 nM | 36.2 nM | 40.2 nM | 86.6 nM | – |
| ACAUGAGGAUCACCCAUGUAAUGGCACGAUACCAGCUGAUCCCGUGGCCCUUGGCAGCGUCCGGUGUGGUCCGCCGGGUUGGACC [HHHMULLIN] | 59 nM | 49.1 nM | 36.2 nM | 26 nM | 31.1 nM | – |
| AGCAUGUUAUCAGAUACCAGACAUCUUUUAAAACAUAUUACAUGAGGAUCACCCAUGUUGGUCCCUUGGCAGCUGAAAUAUUUCA [JR_Nu_SSTheophyB_Sub024] | 118 nM | 223 nM | 321 nM | – | – | – |
| GGGCGCGUGGACCGGCGUGCUCCGCUCCGUCGAGGACCGGUACGGCCGCCACUCGACAUGAGGAUCACCCAUGUGCGAGCUCGCG [#1 Exclusion - Tryptophan A Attempt #15 (HarryS)] | 16.2 nM | 39.8 nM | 191 nM | 19.3 nM | 32.1 nM | – |
| GAUCGAUCAUAGUACGAUCGUUUUGUGGAAGGAGCGCAGAGGACUGCAGGUAGGUCGCCACAUGAGGAUCACCCAUGUCAGGAUU [XARG-A 24] | 99.9 nM | 62.5 nM | 32.8 nM | 61.5 nM | 122 nM | – |
| GAUUCGCAGUCGGCCGCCACUAACAUGAGCUGCUAGUUAUUAUCACAUGAGGAUCACCCAUGUCUUAGGACCGGGACAACCUGUU [theeternabot_sameState_MS2_Trp_B_26] | 48.3 nM | 79.1 nM | – | – | 85.3 nM | – |
| UACAUGAGGAUCACCCAUGUGUAGAGGGAUACCAGUGACAGUAAGCACCCUUGGCAGCCCGUGAACAAAGGGUGGGCAAAAUAGU [#16 Exclusion-TheophyllineA] | 48.2 nM | 60.3 nM | 33.9 nM | 39.2 nM | 47.4 nM | – |
| UGUAUGGAAACAUGAGGAUCACCCAUGUGGCGAGGACCGGUACGGCCGCCACUCGAGCAGCAAGCGUGUAUGACGCUGCUGCAUG [SS-trypA-0] | 27.3 nM | 60.6 nM | 25.1 nM | 40.9 nM | 49.7 nM | – |

| Sequence | apparent KD of MS2 coat protein ([2]; input ligand: arginine 13.2 mM) | apparent KD of MS2 coat protein [2, 7] | apparent KD of MS2 coat protein [2, 8] | apparent KD of MS2 coat protein ([2]; input ligand: none) | apparent KD of MS2 coat protein [2, 9] | other results |
| --- | --- | --- | --- | --- | --- | --- |
| GUGUACAUGAGGAUCACCCAUGUCGAGUUACGAGGACCGGUACGGCCGCCACUCGGCGGCUCGACACGGAUAGCGAUGCGUUGCU [#18 Exclusion Tryptophan A] | 24.6 nM | 49.5 nM | – | – | 44.1 nM | – |
| AAUCUGUCGGGUGAUACCAGCCUCGGCACGUCUCGUGCCGAACAUGAGGAUCACCCAUGUGGCCCUUGGCAGCACAUGACAAAUC [Teaton] | 71.8 nM | 729 nM | 606 nM | – | – | – |
| AAACGACAUGAGGAUCACCCAUGUGCCGAUACCAGCCGGAUAUACGGCCCUUGGCAGCGGAGUAAAUCCGGAGGACAAUGGGUAA [Same State Theophylline A GF6] | 37.7 nM | 49.5 nM | 39.5 nM | 57 nM | 92.4 nM | – |
| GGGAGGUAGGCGGCCGCCACUGAUUUUCAUAUAUAUAUAACAUGAGGAUCACCCAUGUAGAUAUGCAGGACCGGGCCUGUUUUUU [aaaK] | 18.8 nM | 30.5 nM | – | – | 26.3 nM | – |
| UUUUUCGCGUUUGAUACCAGCAGAGUUGUUCUGGUCUGGUACAUGAGGAUCACCCAUGUCUGCCCUUGGCAGCAAACGGGAGAAG [XTheo #30] | 14.5 nM | 15 nM | 14.8 nM | – | – | – |
| GAUGAUAUUGCAGAUACCAGACACAUGAGGAUCACCCAUGUCUCUGAGAUGAAGGAUCGUGUCCCUUGGCAGCUGCGAUAUCAUC [Bulgaria] | 25.1 nM | 72.9 nM | 30.3 nM | – | – | – |
| ACAUGAGGAUCACCCAUGUAUGACUAUCCUCGAGGACCGGUACGGCCGCCACUCGAACGAGUGGCUCGCGAGUGCGCACUCGCGG [5'end-1] | 12.4 nM | 15.6 nM | 11.6 nM | 11.4 nM | 12.9 nM | – |
| UAGAAGAACAUGCGGGCUCCGGACGGUGAUACCAGAUCGAAAAGGAUCCCUUGGCAGCACUGCACAUGAGGAUCACCCAUGUGCA [theeternabot_exclusion_MS2_Theo_A_7] | 11.8 nM | 11 nM | 10.1 nM | – | – | – |
| ACCUACACGGAGACGUGUAGGAGUAAUGAUACCAGCAUGGAGACAUGCCCUUGGCAGCGUUACAUGAGGAUCACCCAUGUGGUGC [ETHA #6] | 19.1 nM | 37.4 nM | 21.6 nM | – | – | – |
| GCUGUUGCGGUGAGGUAUCCGGCUGUGGAAGGAGCGCGGAAGGCCGCAGGUAGGUCGCCACAUGAGGAUCACCCAUGUCGAUAUA [Aninati] | 48.7 nM | 80.6 nM | 16.8 nM | 16.9 nM | 28.3 nM | – |
| AUAUUUAACGGAAGGAGCGCGGAUAAUAAAGUGGGUAAACAUGAGGAUCACCCAUGUAAACCGCAGGUAGGUCGCCGAUAUAUAU [AstrosEXyARgB#7] | 26.4 nM | 54.8 nM | 41.4 nM | 63.6 nM | 51.2 nM | – |
| GGGCAAGAGGGAAGGAGCGUCAGCUGAGUCACAUGAGGAUCACCCAUGUCGCACAUAGUGUGACAGGUAGGUCGCCCUCUACCCU [Esceinan] | 57.8 nM | 167 nM | 89.3 nM | 124 nM | 107 nM | – |
| GCUUGGGUGGCACAGCCCUGGCAGUGCGAUACCAGCACGGUAACGUGCCCUUGGCAGCGCACAUGAGGAUCACCCAUGUGGUGCG [#1 Exclusion - Theophylline A Attempt #25 (HarryS)] | 28.7 nM | 197 nM | 62.6 nM | – | – | – |
| UCAAUACAGUCGGCCGCCACUGUAACCAAACCUACAUACCAACAUGAGGAUCACCCAUGUUUAUACAGGACCGGGACCUCUAUGA [theeternabot_sameState_MS2_Trp_B_10] | 32.6 nM | 45.8 nM | – | – | 46.4 nM | – |
| ACAUUUAACUGAAGGAGCGUGAUAUGUACAUGAGGAUCACCCAUGUCUUACAUGUGAUAUUCACAGGUAGGUCGCAGACUAAUGA [JR_ExcArginiB_Sub004] | 22.7 nM | 23.2 nM | 20.3 nM | 18.8 nM | 23 nM | – |
| CUCUGAGUCCGCAAGGACUCAGAGGCGGAUACCAGCGAGGUCCAUCGCCCUUGGCAGCCGAACAUGAGGAUCACCCAUGUCGGUA [#1 Same State - Theophylline A Attempt #27 (HarryS)] | 8.89 nM | 14.5 nM | 10.9 nM | – | – | – |
| GAUGAACUAUUUGAUACCAGACUACAUGAGGAUCACCCAUGUGUGUUUAUACUUCAGUCAGUCCCUUGGCAGCAAAUAGUUUAUC [XTheo B #3] | 94.8 nM | 183 nM | 158 nM | – | – | – |

Reference: the supplement of paper PMC9170038
